In PMC3727329, “Combining crystallography and EPR: crystal and solution structures of the multidomain cochaperone DnaJ” (Acta Crystallographica Section D: Biological Crystallography, 2013):

Target: the molecule itself
Test: crystal structure; SeMet-DnaJ_(Δ108–114/4M), SeMet-SAD phasing, 2.9 Å; two dimers in the asymmetric unit; crystals from 14–16% PEG 6000, 0.1 M succinate/BTP pH 7.0 with adenine nucleotides

B1: SeMet-DnaJ_(Δ108–114/4M), Thermus thermophilus DnaJ lacking residues 108–114 with four residues substituted by methionine (natural protein, UniProt Q56237 1-280, looked up)
chain: MAAKKDYYAILGVPRNATQEEIKRAYKRLARQYHPDVNKSPEAEEKFKEINEAYAVMSDPEKRRIYDTYGTTEAPPPPPPGGYDFSGFDVEDFSEFFQELFGPGLFGKGRDLRAELPLTLEEAFHGGERVVEVAGRRVSVRMPPGVREGSVIRVPGMGGQGNPPGDLLLVVRMLPHPVFRLEGQDLYATLDVPAPIAVVGGKVRAMTLEGPVEVAVPPRTQAGRKMRLKGKGFPGPAGRGDLYLEVRITIPERLTPEEEALWKKLAEAYYARA
modifications: selenomethionine in place of methionine
notes: DnaJ (type II DnaJ, Hsp40 homologue) of Thermus thermophilus with J, GF and C-terminal domains; chains A-D of the model hold residues 2-272; Cloned NcoI/NotI into pET24d; also called DnaJ_(108114/4M); source: E. coli BL21(DE3) in minimal medium with L-selenomethionine, purified (heat denaturation, Ni-NTA, Superdex 200)
binding result: binds
